Source: patent publication US20190330625A1, “CONSEQUENCES OF A DEFECTIVE SWITCH IN CUTANEOUS SQUAMOUS CELL CARCINOMA” (AGENCY FOR SCIENCE, TECHNOLOGY AND RESEARCH, published 2019)

T1: Wnt7a (UniProt O00755 32-349, limits assumed)
T1 construct: Endogenous protein of the A253 (HNSCC) cell lysate
T1 sequence (looked up): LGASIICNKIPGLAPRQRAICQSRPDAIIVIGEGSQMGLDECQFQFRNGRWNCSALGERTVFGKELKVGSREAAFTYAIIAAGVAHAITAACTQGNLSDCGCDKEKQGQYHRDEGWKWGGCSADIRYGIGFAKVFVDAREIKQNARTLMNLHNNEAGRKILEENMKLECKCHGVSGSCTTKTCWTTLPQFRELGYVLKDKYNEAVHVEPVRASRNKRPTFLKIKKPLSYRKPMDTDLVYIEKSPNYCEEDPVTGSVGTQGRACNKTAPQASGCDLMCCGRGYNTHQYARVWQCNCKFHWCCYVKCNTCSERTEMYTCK


Columns and labels:
Wnt7a = target: T1, Wnt7a; assay: co-IP with anti-FSTL1 antibody or IgG control from A253 lysate, western blot for Wnt7a
HuR (ELAVL1) = HuR (ELAVL1) (UniProt Q15717 Q15717:1-326); assay: EMSA; 0.2-0.6 uM HuR; 30 mM Tris pH 7.4, 5 mM MgCl2, 50 mM KCl, yeast tRNA, room temperature; sequence listed as DNA, assayed as RNA transcript; conditions: pre-miRNA hairpin
Chain of HuR (ELAVL1) (Q15717 whole entry, one chain of several): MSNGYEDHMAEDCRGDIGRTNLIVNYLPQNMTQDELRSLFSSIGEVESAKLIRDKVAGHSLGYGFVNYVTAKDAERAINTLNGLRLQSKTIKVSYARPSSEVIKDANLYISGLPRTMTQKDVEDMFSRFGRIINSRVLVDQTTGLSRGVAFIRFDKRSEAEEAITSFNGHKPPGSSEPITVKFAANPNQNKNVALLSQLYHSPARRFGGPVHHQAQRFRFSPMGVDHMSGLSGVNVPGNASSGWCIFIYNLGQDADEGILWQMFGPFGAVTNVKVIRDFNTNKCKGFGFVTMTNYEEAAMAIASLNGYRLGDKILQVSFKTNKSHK
Protocol: After 30 minutes at room temperature, reaction products were resolved through 6% native polyacrylamide gel electrophoresis. […] The resulting gel was dried and the protein RNA complex and unbound RNA were visualized by phosphor-imaging.

binding result (Wnt7a)	Binder	binding result (HuR (ELAVL1))
binds	Follistatin-related protein 1 (FSTL1) (other, Endogenous secreted glycoprotein in A253 cell lysates, pulled down with the anti-FSTL1 antibody; also called follistatin-like-1) EEELRSKSKICANVFCGAGRECAVTEKGEPTCLCIEQCKPHKRPVCGSNGKTYLNHCELHRDACLTGSKIQVDYDGHCKEKKSVSPSASPVVCYQSNRDELRRRIIQWLEAEIIPDGWFSKGSNYSEILDKYFKNFDNGDSRLDSSEFLKFVEQNETAINITTYPDQENNKLLRGLCVDALIELSDENADWKLSFQEFLKCLNPSFNPPEKKCALEDETYADGAETEVDCNRCVCACGNWVCTAMTCDGKNQKGAQTQTEEEMTRYVQELQKHQETAEKTKRVSTKEI	–
–	pre-miR-198 WT (ssRNA) RNA: UCAUUGGUCCAGAGGGGAGAUAGGUUCCUGUGAUUUUUCCUUCUUCUCUAUAGAAUAAAUGA	binds
